The results in this text go back to paper PMC6075789, “Comparative proteomics of the two T. brucei PABPs suggests that PABP2 controls bulk mRNA” (PLoS Neglected Tropical Diseases, 2018).

Like-named read-outs stand apart in the source and are kept apart here.

Test [1] addresses T1, G1-IP2 eYFP fusion protein (T. brucei, UniProt Q387L6 1-435).
T1 construct: The methods say N-terminal eYFP for all proteins but RBP23; the results print the label G1-IP2-eYFP; source: T. brucei procyclic Lister 427, expressed from the endogenous locus, in lysate of cryomilled cells; not shown: eYFP, N-terminal, kept
T1 sequence (looked up): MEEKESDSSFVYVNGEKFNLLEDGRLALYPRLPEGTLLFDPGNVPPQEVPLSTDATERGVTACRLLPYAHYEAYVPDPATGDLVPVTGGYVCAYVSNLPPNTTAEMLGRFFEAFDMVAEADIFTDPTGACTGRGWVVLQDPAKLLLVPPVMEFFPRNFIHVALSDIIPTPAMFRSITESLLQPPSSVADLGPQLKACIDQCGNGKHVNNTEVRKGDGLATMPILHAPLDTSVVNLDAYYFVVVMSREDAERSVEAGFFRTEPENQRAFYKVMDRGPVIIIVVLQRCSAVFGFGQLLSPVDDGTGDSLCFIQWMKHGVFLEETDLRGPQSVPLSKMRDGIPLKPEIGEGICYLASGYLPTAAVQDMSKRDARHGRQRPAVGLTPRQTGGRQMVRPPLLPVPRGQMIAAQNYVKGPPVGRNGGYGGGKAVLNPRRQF
Put plainly: co-IP; eYFP fusion of eIF4E4 or G1-IP2 precipitated from cryomilled powder in low salt buffer with anti-GFP nanobody LaG16-LaG2 on magnetic beads; co-precipitated PABP-4Ty1 detected by western blot with anti-Ty1 (BB2); enrichment against beads without antibody, two replicates.

Test [2] addresses eIF4E4 eYFP fusion protein (T. brucei). The test is described as above.

In the case of PABP2-4Ty1 (natural protein), the values for the enrichment ratio against control beads without antibody in test [1] and in test [2] were 19 fold and 3 fold, respectively.

B1: PABP1-4Ty1 (natural protein, T. brucei, UniProt Q38E63 1-566, looked up)
chain: MTIAAQGVPSGPSATKPLQVASLYVGDLDPAINEPQLVDIFKPYGTILNVRVCRDIITQRSLGYGYVNYDDVNSASKAMEELNFKRVGEKCIRIMWQQRDPALRYSGSGNIFVKNLKEEVDSRELSLIFKKFGEILSCKVMDDESGKSRGYGFVHFKDDDAAKAAIEKMNGDKEHADADKAALYVANFIRRNARLAALVANFTNVYIKQLLPTVDKDVIEKFFSKFGGITSAAICKDKNGRAFAFCNFEKHDDAVKAIEASHDQEVEGVTQPGEKLYVQRAQPRSERLIALRQKYMQCQSLGNNLYVRNFDAEFTEKDLNELFKEYGVIRSCRVMTDANGISRGFGFVSFENADQANAALREMNGRMLNGKPLVVNIAQRRDQRLTMLKLQLQQRLQMMMHHMHPPPFGMPGHPLQRRNARSGGRGNRPHPRQQQPQPQPEPQPPLATTVPPAAAHSVMFTAPSMGFSAVPRTPQASPAIAPDTPPLPPISAEDLQQMSVDEQRAALGDRLYIKVHELAPDHAPKITGMFLEMNPKEALALLSNPKLMHEKVTEALCVLKVHASSA
notes: also called PABP-Ty1; source: T. brucei procyclic Lister 427, expressed from the endogenous locus, in lysate of cryomilled cells
B1: the “enrichment ratio against control beads without antibody” value in test [1] (partners not purified) stood at 4 fold; in test [2] it was 64 fold.
